Where only a bound is given, the exact number is not on record here.

Data on one molecule can be found in publication PMC12390807, “Developing and validating anti-ADA2 single-chain antibodies coupled to alkaline phosphatase for diagnosing pleural tuberculosis” (Frontiers in Immunology, 2025).

The target in this test is T1, human adenosine deaminase 2 (ADA2) (Homo sapiens, UniProt Q9NZK5).
T1 construct: adenosine deaminase 2 (ADA2), human, recombinant, produced in S2 insect cells; also called hADA2; recombinant ADA2
The test can be described thus: BLI; apparent dissociation constant; which partner was immobilised and the conditions are not told. To be noted: both partners purified. For orientation: Biolayer interferometry detects binding as a change in optical thickness at a sensor tip.

T1 sequence (Q9NZK5 30-511): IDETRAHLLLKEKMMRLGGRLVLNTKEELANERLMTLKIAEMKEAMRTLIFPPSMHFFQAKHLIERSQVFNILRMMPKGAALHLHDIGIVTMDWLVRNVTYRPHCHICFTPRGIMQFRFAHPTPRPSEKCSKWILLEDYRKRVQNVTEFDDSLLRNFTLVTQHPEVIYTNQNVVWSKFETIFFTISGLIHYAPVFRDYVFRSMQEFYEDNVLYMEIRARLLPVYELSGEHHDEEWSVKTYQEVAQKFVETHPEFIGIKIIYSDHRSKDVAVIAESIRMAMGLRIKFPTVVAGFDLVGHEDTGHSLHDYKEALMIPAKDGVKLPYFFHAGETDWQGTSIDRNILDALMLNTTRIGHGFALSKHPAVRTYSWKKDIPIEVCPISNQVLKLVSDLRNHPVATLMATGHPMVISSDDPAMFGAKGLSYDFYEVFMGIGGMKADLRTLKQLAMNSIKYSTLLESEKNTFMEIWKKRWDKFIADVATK

B1: H11 anti-ADA2 scFv-AP (single-chain antibody fused with bacterial alkaline phosphatase) (scFv, V domains shown)
VH: EVQLLESGGGLVQPGGSLRLSCAASGFTFSSYSMHWVRQAPGKGLEWVSSIWGVNGETDYADSVKGRFTISRDNSKNTLYLQMNSLRAEDTAVYYCAADWSLDYWGQGTLVTVSS
VL: EIVLTQSPGTLSLSPGERATLSCRASQSVSSSYLAWYQQKPGQAPRLLIYGASSRATGVPDRFSGSGSGTDFTLTISRLEPEDFAVYYCQQSSSYPWTFGQGTKVEIK
notes: The clone name H11 appears only in the ELISA methods; also called H11 scFv-AP; sc-anti-ADA2 alkaline phosphatase fusion protein; source: E. coli XL1-Blue (pAK600H vector), purified (Nickel Sepharose HiTrap / Ni-NTA Chelating Sepharose)
As to B1, the Kd was below 10 nM.
